Tests used:
[1] = biological target: T1, wild-type human EGFR on cells (human, UniProt P00533 25-1210); assay: FACS, A431 cells, PE secondary antibody
T1 construct: Stands for transfected HEK293/hEGFRwt, endogenous EGFR of A431 and of parental HEK293 cells, and human EGFR of hEGFR mice; the cell line is named under assay; also called EGFRwt; hEGFRwt
Procedure: (§1) To determine the specificity of the anti-EGFRvIII mAbs, their binding to HEK293, HEK293 cells expressing EGFRvIII (HEK293/EGFRvIII) and A431 cells, was analyzed by fluorescence activated cell sorting (FACS). HEK293/EGFRvIII cells were prepared by transfecting HEK293 cells with neomycin resistant DNA vectors constitutively expressing full-length hEGFRvIII (SEQ ID NO:147) using LIPOFECTAMINE™ 2000 transfection reagent (INVITROGEN™). At two days post-transfection, cells were placed under G418 selection for approximately two weeks. Populations positively expressing EGFRvIII were isolated via fluorescence activated cell sorting (FACS). The HEK293 cells expressing ˜3×10⁶ copies of EGFRvIII per cell were used in the experiment. […] In another set of experiment, anti-EGFRvIII antibodies were directly conjugated via their lysine residues with the fluorescent dye, ALEXA FLUOR® 488 Dye (INVITROGEN™), thereby eliminating the step using the secondary antibody. […] Controls I, II, III, IV and V are described above. MFI: Mean Fluorescence Intensity.

EGFRvIII-mFc [2] = biological target: T2, EGFRvIII-mFc (human); assay: SPR 37C, receptor-capture; 37 C, receptor-capture format (EGFRvIII-mFc captured)
T2 construct: Soluble dimeric protein
Procedure: (§2) Measurements were conducted on a T100 BIACORE™ instrument. […] In the receptor-capture format, either EGFRvIII-mFc or EGFR-mFc, was captured on the BIACORE™ chip and the respective antibodies flowed over. Kinetic association (kₐ) and dissociation (kd) rate constants were determined by processing and fitting the data to a 1:1 binding model using Scrubber 2.0 curve fitting software. Binding dissociation equilibrium constants (KD) and dissociative half-lives (t_{1/2}) were calculated from the kinetic rate constants as: KD (M)=kd/kₐ; and t₁₁₂ (min)=ln2/(60*kd).

[3] = biological target: T3, full-length hEGFRvIII on cells (human, UniProt P00533 298-1210); assay: cell-based or functional assay
[4] = biological target: T3, full-length hEGFRvIII on cells; assay: FACS, HEK293/EGFRvIII cells, directly labeled antibody
Procedure: as §1

EGFR-mmh [5] = biological target: T4, EGFR-mmh (human, UniProt P00533 25-647, limits assumed); assay: ELISA; ELISA, 25 C, EGFR-mmh coated on the plate
T4 construct: Soluble monomeric protein; also called hEGFR-mmh
Excerpt: (§3) To further characterize anti-hEGFRvIII mAbs, their binding specificity was examined by ELISA. […] Also, coated was an irrelevant peptide (control peptide) with or without biotin at its N-terminal. […] The plates were then washed and bound anti-EGFRvIII mAbs were detected with anti-human Fc antibodies conjugated with horse-radish peroxidase (HRP). […] Data analysis used a sigmoidal dose-response model within PRISM™ software.

[6] = biological target: T3, full-length hEGFRvIII on cells; assay: FACS, HEK293/EGFRvIII cells, PE secondary antibody
Procedure: as §1

[7] = biological target: T1, wild-type human EGFR on cells; assay: FACS, A431 cells, directly labeled antibody
Procedure: as §1

EGFR-mFc [8] = biological target: T5, EGFR-mFc (human); assay: SPR 37C, receptor-capture; 37 C, receptor-capture format (EGFR-mFc captured)
T5 construct: Soluble dimeric protein
Procedure: as §2

EGFRvIII-mmh [9] = biological target: T6, EGFRvIII-mmh (human, UniProt P00533 298-647, limits assumed); assay: ELISA; ELISA, 25 C, EGFRvIII-mmh coated on the plate
T6 construct: Soluble monomeric protein; also called hEGFRvIII-mmh; hEGFRvIII.mmh
Excerpt: as §3

EGFRvIII-mmh [10] = biological target: T6, EGFRvIII-mmh; assay: SPR 37C, mAb-capture
EGFRvIII-mFc [11] = biological target: T2, EGFRvIII-mFc; assay: SPR 37C, mAb-capture
EGFRvIII-mFc [12] = biological target: T2, EGFRvIII-mFc; assay: SPR 37C, receptor-capture
Procedure: as §2

EGFRvIII-mmh [13] = biological target: T6, EGFRvIII-mmh; assay: ELISA
Excerpt: as §3

EGFR-mmh [14] = biological target: T4, EGFR-mmh; assay: SPR 37C, mAb-capture
EGFR-mFc [15] = biological target: T5, EGFR-mFc; assay: SPR 37C, mAb-capture
EGFR-mFc [16] = biological target: T5, EGFR-mFc; assay: SPR 37C, receptor-capture
Procedure: as §2

EGFR-mmh [17] = biological target: T4, EGFR-mmh; assay: ELISA
Excerpt: as §3

Binder | A431 MFI [1] [MFI] | Fold Above Background [1] [fold] | HEK293/EGFRvIII MFI [4] [MFI] | Ratio (EGFRvIII MFI/parental MFI) [4] | EC50 (EGFR-mmh [5]) [nM] | HEK293/EGFRvIII MFI [6] [MFI] | Ratio (EGFRvIII MFI/parental MFI) [6] | Kd (EGFR-mFc [8]) [nM] | koff (EGFR-mFc [8]) [s⁻¹] | kon (EGFR-mFc [8]) [M⁻¹ s⁻¹] | Kd (EGFRvIII-mmh [10]) [nM] | T½ (EGFRvIII-mmh [10]) [min] | koff (EGFRvIII-mmh [10]) [s⁻¹] | kon (EGFRvIII-mmh [10]) [M⁻¹ s⁻¹] | Kd (EGFRvIII-mFc [11]) [nM] | T½ (EGFRvIII-mFc [11]) [min] | koff (EGFRvIII-mFc [11]) [s⁻¹] | kon (EGFRvIII-mFc [11]) [M⁻¹ s⁻¹] | Kd (EGFRvIII-mFc [12]) [nM] | T½ (EGFRvIII-mFc [12]) [h] | further results
H1H1911N (antibody, human IgG1, V domains shown, Human IgG1 Fc; also called H2M1911N (same variable domains)) VH: QVQLVESGGGVVQPGRSLRLSCAASGFTFSRYGIHWVRQAPGKGLEWVAVIWHDGSNKYYADSVKGRFTISRDNSKNTLYLQMTSLRAEDTAVYYCARDGLEIRDHYYYGMDVWGQGTTVTVSS VL: DIQMTQSPSTLSASVGDRVTITCRASQSTSSWLAWYQQKPGKAPTLLIYKASSLESGVPSKFSGSGSGTEFTLTISSLQPDDFATYYCQQYNRYSRTFGQGTKVEIK | 3140 | 2.2 | 55100 | 15.3 | 9.06 | 107000 | 59.1 | 224 | 0.00174 | 7770 | – | – | – | – | – | – | – | – | – | – | Kd (EGFRvIII-mFc [2]): 19.5 nM; T½ (EGFRvIII-mFc [2]): 18 min; koff (EGFRvIII-mFc [2]): 0.000643 s⁻¹; kon (EGFRvIII-mFc [2]): 32900 M⁻¹ s⁻¹; Fluorescent Intensity of vesicles 4° C., Mean [3]: 29800; Fluorescent Intensity of vesicles 37° C., Mean [3]: 280000; A431 MFI [7]: 16000 MFI; Fold Above Background [7]: 2.4 fold; T½ (EGFR-mFc [8]): 7 min; EC50 (EGFRvIII-mmh [9]): 0.0748 nM
H1H1913N (antibody, human IgG1, V domains shown, Human IgG1 Fc; also called H3M1913N (same variable domains)) VH: QVQLQQWGAGLLKPSETLSLTCAVYGGSFSGDYWSWIRQSPGKGLEWIGEINHSGSTNYNPSLKSRVTISIDTSKNQFSLKLSSVTAADTAVYYCARGGGDYYYGMDVWGLGTTVTVSS VL: AIQMTQSPSSLSASVGDRVTITCRASQGIGNDLGWYQQKPGKAPNLLIYATSSLQSGVPSRFSGSGSGTDFTLTISSLQPEDFATYYCLQDYNYPWTFGQGTKVEIK | – | – | 239000 | 49.8 | 2.55 | – | – | ≤ 0.169 | ≤ 1e-06 | 5930 | 7030 | 10 | 0.00114 | 163 | 22.6 | 37 | 0.000316 | 14000 | ≤ 0.0159 | 192 | koff (EGFRvIII-mFc [12]): ≤ 1e-06 s⁻¹; kon (EGFRvIII-mFc [12]): 63000 M⁻¹ s⁻¹; EC50 (EGFRvIII-mmh [13]): 2.14 nM
H1H2194P (antibody, human IgG1, V domains shown, Human IgG1 Fc; also called H1H2194N) VH: QVQLVQSGAEVKKPGASVKVSCKASGYTFTSYDINWVRQATGQGLEWMGWINPNSDYTGYVQKFQGRVTMTRDTSISTAYMELSSLRSEDTAVYYCATSRWSEHFHHWGQGTLVTVSS VL: not shown | 2290 | 1.6 | – | – | – | 18600 | 18.9 | – | – | – | 17 | 8 | 0.00137 | 81000 | 2.33 | 52 | 0.000222 | 95400 | 0.394 | 2.62 | Kd (EGFR-mmh [14]): 12.6 nM; T½ (EGFR-mmh [14]): 12 min; koff (EGFR-mmh [14]): 0.00096 s⁻¹; kon (EGFR-mmh [14]): 76000 M⁻¹ s⁻¹; Kd (EGFR-mFc [15]): 2.43 nM; T½ (EGFR-mFc [15]): 58 min; koff (EGFR-mFc [15]): 0.000199 s⁻¹; kon (EGFR-mFc [15]): 81000 M⁻¹ s⁻¹; Kd (EGFR-mFc [16]): 0.38 nM; T½ (EGFR-mFc [16]): 163 min; koff (EGFR-mFc [16]): 7.07e-05 s⁻¹; kon (EGFR-mFc [16]): 187000 M⁻¹ s⁻¹; koff (EGFRvIII-mFc [12]): 7.38e-05 s⁻¹; kon (EGFRvIII-mFc [12]): 188000 M⁻¹ s⁻¹; EC50 (EGFR-mmh [17]): 0.0037 nM; EC50 (EGFRvIII-mmh [13]): 0.0032 nM
